# B1: BBSome complex member BBS1 (Homo sapiens), Q8NFJ9 (parent)
# chain: MAAASSSDSDACGAESNEANSKWLDAHYDPMANIHTFSACLALADLHGDGEYKLVVGDLGPGGQQPRLKVLKGPLVMTESPLPALPAAAATFLMEQHEPRTPALALASGPCVYVYKNLRPYFKFSLPQLPPNPLEQDLWNQAKEDRIDPLTLKEMLESIRETAEEPLSIQSLRFLQLELSEMEAFVNQHKSNSIKRQTVITTMTTLKKNLADEDAVSCLVLGTENKELLVLDPEAFTILAKMSLPSVPVFLEVSGQFDVEFRLAAACRNGNIYILRRDSKHPKYCIELSAQPVGLIRVHKVLVVGSTQDSLHGFTHKGKKLWTVQMPAAILTMNLLEQHSRGLQAVMAGLANGEVRIYRDKALLNVIHTPDAVTSLCFGRYGREDNTLIMTTRGGGLIIKILKRTAVFVEGGSEVGPPPAQAMKLNVPRKTRLYVDQTLREREAGTAMHRAFQTDLYLLRLRAARAYLQALESSLSPLSTTAREPLKLHAVVQGLGPTFKLTLHLQNTSTTRPVLGLLVCFLYNEALYSLPRAFFKVPLLVPGLNYPLETFVESLSNKGISDIIKVLVLREGQSAPLLSAHVNMPGSEGLAAA
# Variants of: B1
# Settings: with Lepr
row,effect of a mutation on the interaction,Variant
1,decreasing interaction,MAAASSSDSDACGAESNEANSKWLDAHYDPMANIHTFSACLALADLHGDGEYKLVVGDLGPGGQQPRLKVLKGPLVMTESPLPALPAAAATFLMEQHEPRTPALALASGPCVYVYKNLRPYFKFSLPQLPPNPLEQDLWNQAKEDRIDPLTLKEMLESIRETAEEPLSIQSLRFLQLELSEMEAFVNQHKSNSIKRQTVITTMTTLKKNLADEDAVSCLVLGTENKELLVLDPEAFTILAKMSLPSVPVFLEVSGQFDVEFRLAAACRNGNIYILRRDSKHPKYCIELSAQPVGLIRVHKVLVVGSTQDSLHGFTHKGKKLWTVQMPAAILTMNLLEQHSRGLQAVMAGLANGEVRIYRDKALLNVIHTPDAVTSLCFGRYGREDNTLIRTTRGGGLIIKILKRTAVFVEGGSEVGPPPAQAMKLNVPRKTRLYVDQTLREREAGTAMHRAFQTDLYLLRLRAARAYLQALESSLSPLSTTAREPLKLHAVVQGLGPTFKLTLHLQNTSTTRPVLGLLVCFLYNEALYSLPRAFFKVPLLVPGLNYPLETFVESLSNKGISDIIKVLVLREGQSAPLLSAHVNMPGSEGLAAA [M390R]

# — IntAct's records for PubMed 19150989
